# Measured values taken from publication PMC7714071, “Interaction of amyloid beta with humanin and acetylcholinesterase is modulated by ATP” (FEBS Open Bio, 2020).
# B1: acetylcholinesterase (protein)
# chain: EGREDAELLVTVRGGRLRGIRLKTPGGPVSAFLGIPFAEPPMGPRRFLPPEPKQPWSGVVDATTFQSVCYQYVDTLYPGFEGTEMWNPNRELSEDCLYLNVWTPYPRPTSPTPVLVWIYGGGFYSGASSLDVYDGRFLVQAERTVLVSMNYRVGAFGFLALPGSREAPGNVGLLDQRLALQWVQENVAAFGGDPTSVTLFGESAGAASVGMHLLSPPSRGLFHRAVLQSGAPNGPWATVGMGEARRRATQLAHLVGCPPGGTGGNDTELVACLRTRPAQVLVNHEWHVLPQESVFRFSFVPVVDGDFLSDTPEALINAGDFHGLQVLVGVVKDEGSYFLVYGAPGFSKDNESLISRAEFLAGVRVGVPQVSDLAAEAVVLHYTDWLHPEDPARLREALSDVVGDHNVVCPVAQLAGRLAAQGARVYAYVFEHRASTLSWPLWMGVPHGYEIEFIFGIPLDPSRNYTAEEKIFAQRLMRYWANFARTGDPNEPRDPKAPQWPPYTAGAQQYVSLDLRPLEVRRGLRAQACAFWNRFLPKLLSATDTLDEAERQWKAEFHRWSSYMVHWKNQFDHYSKQDRCSDL
# How the values were obtained:
# [1] = system: Aβ in H1299 cell-conditioned media; assay: ELISA, oligomer versus total Aβ in H1299 cell-conditioned media; assay type: cell-based, human; conditions: AChE-immunodepleted H1299 media; Fig. 8B
# Protocol: Aβ ELISAs were carried out according to previous protocols for determining the oligomeric and monomeric concentrations of Aβ and as we recently reported. Briefly, total Aβ (monomers + oligomers) was measured by two‐site binding ELISAs using the capture 6E10 monoclonal antibody and 4G8‐conjugated biotin as the detection antibody, which recognizes a distinct epitope, then quantitated using streptavidin‐HRP.
# Using the same samples, oligomerized Aβ was measured by a single‐site ELISA in which antibodies targeting the same primary sequence epitope were used for both capture (4G8) and detection (4G8‐biotin). Only oligomers are detected with this approach since the 4G8‐biotin antibody cannot bind to the captured monomer because the epitope is blocked by the 4G8 capture antibody. […]
# Conditioned media were immunodepleted (ID) according to the methods previously described and our recently published report. […] The ID media were then carefully removed and analyzed for the presence of the target protein or peptide by ELISA. The same amount of protein (3 µL of 600 µg·mL^−1 total protein) of each sample was analyzed in the experiments. […]
# Both epitopes recognized by the 6E10 and 4G8 antibodies have been previously shown to be exposed in Aβ aggregates. […] Fold change relative to controls using anti‐6E10 or anti‐4G8 antibodies incubated with 300 μL of the medium not incubated with cells was calculated. […]
# Aβ42 = conditions: cited from earlier work
# Excerpt: Almost all types of cells produce amyloid beta (Aβ), a peptide well recognized for its role in the development and progression of different stages of Alzheimer's disease (AD). The Aβ peptide is ~ 4 kDa and derived from the sequential processing of the higher molecular weight amyloid precursor protein by two membrane‐bound endoproteases, β‐ and γ‐secretase. Different C‐terminal Aβ heterogeneity results from processing by γ‐secretase, where Aβ40 represents the most abundant isoform (~ 90%) as compared to Aβ42 (~ 10%). Self‐assembled Aβ40/42 peptides into amyloid fib ... || Amino acid residues involved in direct interactions between HN and Aβ40 were identified previously by molecular modeling. The specific epitopes at the binding interface between HN and Aβ40 were identified, by proteolytic epitope excision and extraction in addition to affinity–mass spectrometric data analysis, to be HN (5–15) and Aβ (17–28). […] Inhibiting the 17–28 region of Aβ reduced aggregation of the neurotoxic amyloid fibrils and related cytotoxicity in SH‐SY5Y, a human neuroblastoma cell ... || Acetylcholinesterase (AChE) is an enzyme known for its role in terminating acetylcholine‐mediated neurotransmission at the synaptic cleft. The majority of the cortical AChE in the Alzheimer's brain is mainly associated with the amyloid core of senile plaques. […]
molecule,measurement,setting,value
B1,effect of AChE ID on oligomer versus total Aβ,[1],No change
same,effect on Aβ42 oligomeric formation,Aβ42,increases Aβ42 oligomeric formation
